What was measured:
U10-25* ssDNA substrate = test: Uracil excision assay, RPA-coated versus naked ssDNA; type: biochemical; settings: 1 μM RPA, 100 nM U10-25* ssDNA; 10 min, 22°C; three independent experiments
Method: (§1) 3′-FAM-labelled, PAGE-purified oligonucleotide substrates were from Sigma-Aldrich. Unless otherwise indicated, the substrate (25 nt) harboured uracil at position 10 in a polyC sequence to avoid secondary structures (U10-25*: […]-FAM). Double-stranded substrate was generated by annealing (heating followed by slow cooling) U10-25* to a non-labelled complementary oligo (A16-25: […]). All assays were performed at 22°C in 10 mM Tris–HCl pH 7.5, 50 mM NaCl, 1 mM DTT, 0.1 mM EDTA, 0.5 mg/ml BSA.
(§2) Varying amounts of UNG were then added, and the mixtures incubated for 10 min in a water bath. To avoid unspecific interactions and binding of enzyme and DNA to the assay tube surface, low-DNA binding tubes and excess of BSA was used in all reactions. Reactions were quenched and AP sites cleaved in 10% piperidine at 90°C for 20 min. Samples were dried by vacuum centrifugation and suspended in formamide-containing loading buffer. Product and substrate were separated in 12% PAGE/7M urea–0.5× TBE gels, bands visualised in ChemiDoc™ Imager (Bio-Rad) and quantified by Image Lab software (Bio-Rad). Importantly, all assays in which two parameters were compared (e.g. RPA-coated versus naked substrate or WT versus mutated protein) were performed in parallel with the exact same DNA/protein dilutions.

U10-25* dsDNA substrate = test: Uracil excision assay, dsDNA preincubated with RPA-WT or RPA-ΔWH; type: biochemical; settings: 100 nM U10-25* dsDNA
Method: as §1, §2

B1: UNG-CD: catalytic UNG domain, starting at UNG2 aa 93, lacking the N-terminal RPA-binding helix (protein)
chain: GFGESWKKHLSGEFGKPYFIKLMGFVAEERKHYTVYPPPHQVFTWTQMCDIKDVKVVILGQDPYHGPNQAHGLCFSVQRPVPPPPSLENIYKELSTDIEDFVHPGHGDLSGWAKQGVLLLNAVLTVRAHQANSHKERGWEQFTDAVVSWLNQNSNGLVFLLWGSYAQKKGSAIDRKRHHVLQTAHPSPLSVYRGFFGCRHFSKTNELLQKSGKKPIDWKEL
U10-25* ssDNA substrate
  fold reduced activity with RPA-coated ssDNA compared to naked DNA substrate: 1000 fold
U10-25* dsDNA substrate; 500 nM RPA-WT
  fold increased enzyme concentration to convert similar amounts of substrate in presence of RPA-WT: ~200 fold
U10-25* dsDNA substrate; 500 nM RPA-ΔWH
  fold increased enzyme concentration to convert similar amounts of substrate in presence of RPA-ΔWH: ~50 fold

— article PMC8053108, “RPA2 winged-helix domain facilitates UNG-mediated removal of uracil from ssDNA; implications for repair of mutagenic uracil at the replication fork” (Nucleic Acids Research, 2021)
